Measured values published in patent publication US20060272039.

Key:
[1] = target: His-DAF-16 (C-terminal fragment), O16850
[2] = target: His-DAF-16 (N-terminal fragment), O16850
Chain of His-DAF-16 (N-terminal fragment), O16850 (O16850 whole entry, looked up, the tested form may be a part): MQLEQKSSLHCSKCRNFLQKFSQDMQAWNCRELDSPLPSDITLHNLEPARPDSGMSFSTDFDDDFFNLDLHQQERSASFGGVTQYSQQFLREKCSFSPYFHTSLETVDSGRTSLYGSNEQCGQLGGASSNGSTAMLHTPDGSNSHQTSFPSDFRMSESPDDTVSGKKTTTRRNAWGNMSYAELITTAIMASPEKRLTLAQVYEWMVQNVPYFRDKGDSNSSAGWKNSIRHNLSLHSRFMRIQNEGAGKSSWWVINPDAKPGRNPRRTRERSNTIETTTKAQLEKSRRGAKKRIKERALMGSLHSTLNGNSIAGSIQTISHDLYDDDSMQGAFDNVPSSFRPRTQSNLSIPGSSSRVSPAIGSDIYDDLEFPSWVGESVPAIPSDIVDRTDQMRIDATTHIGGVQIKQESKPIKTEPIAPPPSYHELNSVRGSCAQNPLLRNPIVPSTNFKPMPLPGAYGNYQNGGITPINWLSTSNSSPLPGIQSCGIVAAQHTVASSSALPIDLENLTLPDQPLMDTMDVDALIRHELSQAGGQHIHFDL

Chain of GST-c-Jun (1-79) (P05412 1-79): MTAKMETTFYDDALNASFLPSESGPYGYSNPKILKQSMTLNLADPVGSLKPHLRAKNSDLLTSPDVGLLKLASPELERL
Chain of His-DAF-16 (C-terminal fragment), O16850 (O16850 whole entry, looked up, the tested form may be a part): as the sequence (O16850 whole entry, looked up, the tested form may be a part) above

Protein	in vitro kinase assay (phosphorylation, [γ-32P]ATP, autoradiography) [1]	in vitro kinase assay (phosphorylation, [γ-32P]ATP, autoradiography) [2]	in vitro kinase assay (phosphorylation, [γ-32P]ATP, autoradiography) (GST-c-Jun (1-79))
Xpress-tagged JNK-1 (protein) MEERLSTTSSYPSHPGRSVEEDHNTLLASSSISSIIRGTRGHLNNFIESVGNWLVPSSSGRDDDAVSLDSCQSVYSPVRHHINSGTGGGILMEPSSIHVPENYYSVTIGEAQMVVLKRYQNLRLIGSGAQGIVCSAFDTVRNEQVAIKKLSRPFQNVTHAKRAYRELKLMSLVNHKNIIGILNCFTPQKKLDEFNDLYIVMELMDANLCQVIQMDLDHERLSYLLYQMLCGIRHLHSAGIIHRDLKPSNIVVRSDCTLKILDFGLARTAIEAFMMTPYVVTRYYRAPEVILGMGYKENVDVWSIGCIFGELIRGRVLFPGGDHIDQWTRIIEQLGTPDRSFLERLQPTVRNYVENRPRYQATPFEVLFSDNMFPMTADSSRLTGAQARDLLSRMLVIDPERRISVDDALRHPYVNVWFDEIEVYAPPPLPYDHNMDVEQNVDSWREHIFRELTDYARTHDIYS	The phosphorylation was only observed with the N-terminal (83-307) fragment of DAF-16, but not with the C-terminal (255-470) fragment (data not shown)	Upon activation of JNK-1 by UV, JNK-1 phosphorylates DAF-16	JNK-1 phosphorylates DAF-16 as well as the mammalian c-Jun protein used as a positive control
kinase-dead JNK-1 (APF) (protein) MEERLSTTSSYPSHPGRSVEEDHNTLLASSSISSIIRGTRGHLNNFIESVGNWLVPSSSGRDDDAVSLDSCQSVYSPVRHHINSGTGGGILMEPSSIHVPENYYSVTIGEAQMVVLKRYQNLRLIGSGAQGIVCSAFDTVRNEQVAIKKLSRPFQNVTHAKRAYRELKLMSLVNHKNIIGILNCFTPQKKLDEFNDLYIVMELMDANLCQVIQMDLDHERLSYLLYQMLCGIRHLHSAGIIHRDLKPSNIVVRSDCTLKILDFGLARTAIEAFMMAPFVVTRYYRAPEVILGMGYKENVDVWSIGCIFGELIRGRVLFPGGDHIDQWTRIIEQLGTPDRSFLERLQPTVRNYVENRPRYQATPFEVLFSDNMFPMTADSSRLTGAQARDLLSRMLVIDPERRISVDDALRHPYVNVWFDEIEVYAPPPLPYDHNMDVEQNVDSWREHIFRELTDYARTHDIYS		The kinase-dead JNK-1 (APF) failed to phosphorylate DAF-16	
